Results as given in article PMC10720262, “Molecular determinants of cross-reactivity and potency by VH3-33 antibodies against the Plasmodium falciparum circumsporozoite protein” (Cell Reports, 2023).

Experiments:
[1] = biological target: mAb CIS43; assay: SPR
[2] = biological target: mAb 317; assay: SPR
[3] = biological target: mAb CIS43; assay: SPR; Carterra LSA; mAb amine-coupled to a CMD200M chip, peptide titrated in 2-fold steps up to 8 ug/mL without regeneration; 25 C; HBSTE (10 mM HEPES pH 7.4, 150 mM NaCl, 3 mM EDTA, 0.01% Tween 20); 1:1 Langmuir model; mean of triplicates; KD includes avidity for antigens with several repeats
[4] = biological target: mAb 317; assay: as above

mAb CIS43, sequence (heavy, as listed by the source, chain 1 of 2): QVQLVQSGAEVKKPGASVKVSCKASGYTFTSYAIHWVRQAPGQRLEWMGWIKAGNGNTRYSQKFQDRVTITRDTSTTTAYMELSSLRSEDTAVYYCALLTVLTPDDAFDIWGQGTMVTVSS
mAb CIS43, sequence (light, as listed by the source, chain 2 of 2): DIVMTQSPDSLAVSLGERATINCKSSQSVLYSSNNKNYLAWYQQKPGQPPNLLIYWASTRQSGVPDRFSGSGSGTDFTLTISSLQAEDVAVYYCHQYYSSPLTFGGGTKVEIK
mAb 317, sequence (heavy, as listed by the source, chain 1 of 2): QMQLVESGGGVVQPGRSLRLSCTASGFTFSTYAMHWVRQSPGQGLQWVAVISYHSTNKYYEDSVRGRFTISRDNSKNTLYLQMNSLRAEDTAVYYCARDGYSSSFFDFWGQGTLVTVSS
mAb 317, sequence (light, as listed by the source, chain 2 of 2): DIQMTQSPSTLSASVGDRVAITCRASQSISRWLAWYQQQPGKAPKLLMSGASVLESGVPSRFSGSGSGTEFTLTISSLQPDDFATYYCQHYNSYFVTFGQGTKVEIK

Kd [1] [nM]	Kd [2] [nM]	koff [2] [s⁻¹]	kon [2] [M⁻¹ s⁻¹]	Substance	Kd [3] [nM]	koff [3] [s⁻¹]	kon [3] [M⁻¹ s⁻¹]	Kd [4] [nM]	koff [4] [s⁻¹]	kon [4] [M⁻¹ s⁻¹]
1720	16.6	0.0206	1.24e+06	NANP3 peptide	–	–	–	–	–	–
–	–	–	–	NPDP peptide	19.1	0.00216	113000	4560	0.0454	10000
–	–	–	–	NPNA3 peptide	9430	0.0706	7940	7.03	0.00138	197000
